The target of the experiment is Fc receptor on THP-1 cells. Nature of the experiment: cell-based or functional assay.

A value given as a limit tells only on which side of the number the result lay.

The substance “human IgG1 (heat aggregated, plate coated) (antibody)” gave a TNF secretion by THP-1 cells on wells coated with 10 ug/well heat aggregated protein of over 40 ng/well.

The values above are taken from patent publication US20060030527A1.
